Measured values as given in patent US20250152746A1, “BASE EDITING OF ANGPTL3 AND METHODS OF USING SAME FOR TREATMENT OF DISEASE” (Verve Therapeutics, Inc., priority 2020, published 2025).
In the oligonucleotide strings, read from the 5' end, every base follows the letter of its sugar. An asterisk marks phosphorothioate; unmarked linkages are phosphodiester. Other units and linkages are bracketed, terminal groups are in braces. A string of capitals states the bases alone. m = 2'-O-methyl; r = 2'-OH (RNA)

Key:
PCSK9 gene [1] = assay: PCSK9 gRNA/SpCas9 editing in primary human hepatocytes (Tables 2, 4); format: cell-based; conditions: SpCas9 mRNA MS002 1:1 by weight; for Human Primary Hepatocyte Editing % 100: 100 ng/RNA/mL; for Human Primary Hepatocyte Editing % 500: 500 ng/RNA/mL; for Human Primary Hepatocyte Editing % 2500: 2500 ng/RNA/mL
Summary of the method: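 Primary human hepatocytes co-transfected with PCSK9 gRNA plus SpCas9 mRNA (1:1 by weight) at 2500, 500 or 100 ng RNA/mL, or 2500–250 ng/mL for tracr-modified guides. Editing at the target site read by amplicon next-generation sequencing of extracted genomic DNA.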

PCSK9 gene [2] = assay: PCSK9 gRNA/SpCas9 editing in primary cynomolgus hepatocytes (Tables 2, 22); format: cell-based, cynomolgus monkey; conditions: SpCas9 mRNA MS002 1:1 by weight; for Cyno Primary Hepatocyte Editing % 100: 100 ng/RNA/mL; for Cyno Primary Hepatocyte Editing % 500: 500 ng/RNA/mL; for Cyno Primary Hepatocyte Editing % 2500: 2500 ng/RNA/mL

| Molecule | Human Primary Hepatocyte Editing % 100 (PCSK9 gene [1]) [%] | Human Primary Hepatocyte Editing % 500 (PCSK9 gene [1]) [%] | Human Primary Hepatocyte Editing % 2500 (PCSK9 gene [1]) [%] | Cyno Primary Hepatocyte Editing % 100 (PCSK9 gene [2]) [%] | Cyno Primary Hepatocyte Editing % 500 (PCSK9 gene [2]) [%] | Cyno Primary Hepatocyte Editing % 2500 (PCSK9 gene [2]) [%] |
| --- | --- | --- | --- | --- | --- | --- |
| GA228: PCSK9 gRNA; protospacer CGGCTGTACCCACCCGCCAG (SEQ ID NO: 222) (nucleic acid, sugars from the 5' end m3 r94 m3, linkages s3 o93 s3 (s phosphorothioate, o phosphodiester), T or U not given here) guide: CGGCUGUACCCACCCGCCAGGUUUUAGAGCUAGAAAUAGCAAGUUAAAAUAAGGCUAGUCCGUUAUCAACUUGAAAAAGUGGCACCGAGUCGGUGCUUUU | 5.9 | 10.96 | 37.1 | 1.95 | 7.89 | 31.36 |
| GA229: PCSK9 gRNA; protospacer GTCGTGCTGGTCACCGCTGC (SEQ ID NO: 223) (nucleic acid, sugars from the 5' end m3 r94 m3, linkages s3 o93 s3 (s phosphorothioate, o phosphodiester), T or U not given here) guide: GUCGUGCUGGUCACCGCUGCGUUUUAGAGCUAGAAAUAGCAAGUUAAAAUAAGGCUAGUCCGUUAUCAACUUGAAAAAGUGGCACCGAGUCGGUGCUUUU | 0.47 | 6.85 | 30.41 | 0.75 | 5.39 | 34.28 |
| GA230: PCSK9 gRNA; protospacer AGTAGAGGCAGGCATCGTCC (SEQ ID NO: 224) (nucleic acid, sugars from the 5' end m3 r94 m3, linkages s3 o93 s3 (s phosphorothioate, o phosphodiester), T or U not given here) guide: AGUAGAGGCAGGCAUCGUCCGUUUUAGAGCUAGAAAUAGCAAGUUAAAAUAAGGCUAGUCCGUUAUCAACUUGAAAAAGUGGCACCGAGUCGGUGCUUUU |  | 12.83 | 29.31 |  |  | 35.86 |
| GA233: PCSK9 gRNA; protospacer GCGGCTGTACCCACCCGCCA (SEQ ID NO: 227) (nucleic acid, sugars from the 5' end m3 r94 m3, linkages s3 o93 s3 (s phosphorothioate, o phosphodiester), T or U not given here) guide: GCGGCUGUACCCACCCGCCAGUUUUAGAGCUAGAAAUAGCAAGUUAAAAUAAGGCUAGUCCGUUAUCAACUUGAAAAAGUGGCACCGAGUCGGUGCUUUU | 3.08 | 5.39 | 19.97 | 2.38 | 10.84 | 37.8 |
| GA161: PCSK9 gRNA; protospacer GGACGAGGACGGCGACTACG (SEQ ID NO: 155) (nucleic acid) guide: mG*mG*mA*rCrGrArGrGrArCrGrGrCrGrArCrUrArCrGrGrUrUrUrUrArGrArGrCrUrArGrArArArUrArGrCrArArGrUrUrArArArArUrArArGrGrCrUrArGrUrCrCrGrUrUrArUrCrArArCrUrUrGrArArArArArGrUrGrGrCrArCrCrGrArGrUrCrGrGrUrGrCrU*mU*mU*mU | 3.65 | 8.74 | 35.08 | 4.52 | 14.98 | 48.24 |
| GA234: PCSK9 gRNA; protospacer CGCCTGCCAGCGCCTGGCGA (SEQ ID NO: 252) (nucleic acid) guide: mC*mG*mC*rCrUrGrCrCrArGrCrGrCrCrUrGrGrCrGrArGrUrUrUrUrArGrArGrCrUrArGrArArArUrArGrCrArArGrUrUrArArArArUrArArGrGrCrUrArGrUrCrCrGrUrUrArUrCrArArCrUrUrGrArArArArArGrUrGrGrCrArCrCrGrArGrUrCrGrGrUrGrCrU*mU*mU*mU | 0.06 | 2.29 | 5.45 | 0.21 | 1.53 | 6.44 |
